Assay results taken from US10654925B2, “Anti-marinobufagenin antibodies and uses thereof” (priority 2018, dated 2020).

Assays:
[1] = Direct ELISA antigen binding of humanized anti-MBG; details: 2 μg/ml MBG-conjugated BSA coated; OD 450 nm; among the 6 humanized antibodies; FIG. 1a, 1b
Experimental: The antigen binding of humanized anti-MGB was assayed in a direct Elisa assay. 2 μg/ml of MBG-conjugated BSA was coated in the Elisa plate. After blocking with 1% BSA, 2-fold dilution series of humanized anti-MBG was added to the plate. After washing, the bound antibody was detected by adding anti-human Fc HRP conjugate, and quantified by adding the TMB substrate. OD absorption at 450 nm was measured in a microplate reader.

[2] = ELISA avidity estimate on MBG-BSA; assay type: binding; details: wells coated with 2 μg/ml MBG-BSA; IgG
Experimental: The avidity of anti-MBG antibodies for MBG was estimated in an ELISA. Wells of a microtiter plate were coated with 2 μg/ml of either MBG-bovine serum albumin (BSA) or MBG-keyhole limpet hemocyanin (KLH). The wells were then blocked with 1% BSA. A test IgG antibody at varying concentrations (typically from about 0.0001 nM to about 25 nM) was added to the wells. The test IgG bound to immobilized MBG was detected with an anti-human Fc, horseradish peroxidase (HRP)-conjugated secondary antibody (Jackson ImmunoResearch). After washing of the wells, an appropriate HRP reagent (e.g., TMB ultra, Thermo Fisher) was added to the wells. Optical density (OD) at 450 nm was measured by a microplate reader. The concentration of test antibody at the midpoint of the binding curve is an estimate of avidity for MBG.

[3] = Competitive ELISA, relative CTS specificity, free MBG as competitor; assay type: binding; details: competition with immobilized MBG-BSA; normalized to MBG = 100%
Experimental: (§1) The specificity (relative affinity) of anti-MBG antibodies for MBG relative to various cardiotonic steroids (CTSs) was determined in a competitive ELISA. Each anti-MBG antibody was tested for its binding to immobilized MBG in the presence of free MBG, resibufogenin (RBG), cinobufagin (CINO), ouabain (OUB) or digoxin (DIG) as a competitor. A constant amount of an anti-MBG antibody (typically 1-5 μg/mL) and varying concentrations of each CTS (from 10^−12M to 10^−5M) were pre-incubated before being added to the MBG-BSA-coated wells. After washing of the wells, an anti-human Fc, HRP-conjugated secondary antibody (at 1:5000 dilution) was added to the wells and incubated at 37° C. for 1 hr. After washing of the wells, an appropriate HRP reagent (e.g., TMB ultra, Thermo Fisher) was added to the wells. OD at 450 nm was measured by a microplate reader. MBG at 10 μM was assumed to be 100% competed, and MBG at 1 pM was assumed to be 0% competed. The data was plotted as a titration of antibody-antigen binding relative to free CTS concentration in the competition reaction to determine the free CTS concentration (μM) giving 50% maximal binding of antibody to immobilized MBG. The relative specificity of an antibody for a CTS was normalized to MBG=100%.

[4] = Competitive ELISA, relative CTS specificity, RBG as competitor; assay type: binding; details: competition with immobilized MBG-BSA; normalized to MBG = 100%
Experimental: as §1

[5] = Competitive ELISA, relative CTS specificity, OUB as competitor; assay type: binding; details: competition with immobilized MBG-BSA; normalized to MBG = 100%
Experimental: as §1

[6] = Competitive ELISA, relative CTS specificity, DIG as competitor; assay type: binding; details: competition with immobilized MBG-BSA; normalized to MBG = 100%
Experimental: as §1

[7] = tested on: human umbilical cord venous endothelial cells (HUVEC); assay: Reversal of MBG inhibition of HUVEC cell proliferation (3H-thymidine); assay type: cell-based; details: MBG 2 nM, antibody 2.5-10 μg/mL, 48 hr; FIG. 3b
Experimental: MBG (2 nM) was incubated with an antibody (20 μg/mL in FIG. 3a with human anti-MBG mAbs, or varying concentrations (2.5-10 μg/mL) in FIG. 3b with humanized anti-MBG mAbs) prior to addition to cultured human umbilical cord venous endothelial cells (HUVEC). After 48 hr, DNA synthesis was assessed by incorporation of ^3H-thymidine.
HUVEC cells in endothelial cell growth medium were plated onto 96-well plates. The next day, the cells were pretreated with various antibodies (2.5-20 μg/mL) and then incubated with 2 nM MBG for 48 hr. [^3H]-Thymidine was added to each well. [^3H]-Thymidine-labeled DNA was assayed by harvesting the cells and assaying for ^3H using a PerkinElmer Wallac Tailux liquid scintillation counter. […] Means were tested for significance using Student's t-test.

[8] = tested on: pregnant Sprague-Dawley rats; assay: DOCA/saline rat model of pre-eclampsia; assay type: in vivo; details: antibodies 2.2 mg/kg/d i.p. days 16-18 in PDS rats
Experimental: Female Sprague-Dawley rats (200-250 g, Charles River Laboratories) were acclimatized for 1 week, and mated with male Sprague-Dawley rats (275-300 g). Pregnancy was confirmed by the presence of vaginal plugs or by examination of vaginal smears. Each rat was housed separately.
Five groups of rats were studied (n=10 per group): Group 1 (NP): normal pregnant rats; Group 2 (PDS): pregnant rats injected i.p. initially with 12.5 mg of DOCA in a depot form, followed by a weekly i.p. injection of 6.5 mg of DOCA, and whose drinking water is replaced with 0.9% saline; Group 3 (NPM): Normal pregnant rats given daily injections of MBG (7.65 μg per kg body weight per day) once pregnancy was established on day four of the experiment; Group 4 (PDS-3E9): rats administered DOCA and saline as for Group 2, and also given the murine anti-MBG antibody 3E9 (2.2 mg per kg body weight per day) on days 16, 17, and 18 of pregnancy; and Group 5 (PDS-H3L2): rats administered DOCA and saline as for Group 2, and also given the humanized anti-MBG antibody H3L2 (2.2 mg per kg body weight per day) on days 16, 17, and 18 of pregnancy.
Systolic blood pressure (BP) was measured by tail cuff at days 17-19. At least 3 readings are taken after BP has stabilized, and the mean of these values was calculated. The reported BP values are the mean of the daily measurements. At 18-20 days of pregnancy, 24-hour urine was collected in the absence of food to avoid contamination of the measurement of the protein amount in urine by any fallen food particles. Each rat was housed separately in a metabolic cage during this portion of the study. The 24-hour protein excretion was measured and was normalized to creatinine. The rats were sacrificed after the last measurement on days 18-20, and blood samples were taken. The number of fetal pups was counted and examined. The mean number of pups and any developmental or histological abnormalities in the pups were assessed. Statistical analysis was performed using analysis of variance and Tukey's post hoc test. A p value ≤0.05 was considered statistically significant.

[9] = tested on: PKC-δ in the nucleus of primary rat cardiac fibroblasts; assay: Inhibition of MBG-induced PKC-δ nuclear translocation (Western blot); details: MBG 10 nM; FIG. 2b
Experimental: MBG was incubated with an anti-MBG antibody prior to addition to cultured primary rat cardiac fibroblasts. Nuclei were isolated 30 min later and analyzed for amount of PKC-6.

B1: H3L2: humanized anti-MBG antibody, VH H3 (SEQ ID NO: 11) with VL L2 (SEQ ID NO: 13) (antibody, V domains shown)
VH: EVQLQESGPGLVKPSETLSLTCTVSGDSITSGYWNWIRQPPGKGLEYMGYISYSGTTYYNPSLKSRITISRDTSKNQYSLKLSSVTAADTAVYYCARARYGYGFDYWGQGTLVTVSS
VL: DVVMTQSPLSLPVTLGQPASISCRSSQSIVHSNRNTYLEWYQQRPGQSPRLLIYKVSNRFSGVPDRFSGSGSGTDFTLKISRVEAEDVGVYYCFQGSHVPLTFGGGTKVEIK
modifications: Humanized VH sequence; Humanized VL sequence
- binding affinity in direct ELISA [1]: highest binding affinity
- Estimated avidity (KA) (antibody concentration at 50% maximal binding to antigen, or EC50), Antigen 1 (MBG-BSA) [2]: 0.6 nM
- Rel. CTS Specificity as % of MBG Binding: MBG [3]: 100%
- Rel. CTS Specificity as % of MBG Binding: RBG [4]: 0%
- Rel. CTS Specificity as % of MBG Binding: OUB [5]: 0%
- Rel. CTS Specificity as % of MBG Binding: DIG [6]: 0%
- MBG inhibition of HUVEC cell proliferation, humanized mAbs [7]: significantly reduced
- % Malformed Pups ([8]; MBG 7.65 μg/kg/d in NPM rats): 0%
- No. Pups ([8]; MBG 7.65 μg/kg/d in NPM rats): 12.9 ± 3.2
- Urine Protein ([8]; normalized to creatinine, 18-20 days of pregnancy, MBG 7.65 μg/kg/d in NPM rats): 3.5 ± 0.7 mg/24 h
- Blood Pressure-Final ([8]; tail cuff, 17-19 d of gestation, MBG 7.65 μg/kg/d in normal pregnant rats (NPM), N = 10): 109.4 ± 11 mm Hg
- PKC-δ translocation into the nucleus, MBG plus antibody [9]: reduced
